# Experimental data as given in US12286461B2, “Recombinant fused polypeptide and use thereof” (priority 2019, dated 2025).
# B1: Acetyl-SDKPGGGGTSLDASIIWAMMQNGGGGLSKLGGGGSGGGGSGGGGSPRCWRGEGGGGIVRRADRAAVPGGGGRGD (protein)
# chain: SDKPGGGGTSLDASIIWAMMQNGGGGLSKLGGGGSGGGGSGGGGSPRCWRGEGGGGIVRRADRAAVPGGGGRGD
# modifications: N-acetyl
# notes: Recombinant fused polypeptide Y-linker1-X expressed in 293 cells
# Assays:
# [1] = system: SD rats with bleomycin-induced pulmonary fibrosis; assay: Bleomycin-induced pulmonary fibrosis animal model; assay type: in vivo; details: for Survival rate (%): bleomycin 5 mg/kg intratracheal, dosage 10 mg/kg (Table 2), administration cycle 15 days from day 7 after modeling; for content of TGF-β1 in serum, difference from the model group: fused polypeptides 10 mg/kg s.c. once every five days, nintedanib 25 mg/kg intragastric once a day
# Description: SD rats were anesthetized by intraperitoneal injection of 4% chloral hydrate with a concentration of 1 mL/100 g. After anesthesia, the rats were fixed and their necks were disinfected by using cotton with 75% alcohol. The skin of the rat neck was longitudinally cut with scissors, and the fascia and muscle were longitudinally bluntly torn with tweezers to expose the trachea. A syringe was inserted into the trachea to inject 5 mg/kg bleomycin, while a blank group was injected with an equal amount of normal saline. Then a rat plate was quickly erected and rotated, the rats' breathing was observed, the neck wound was sterilized after rotation and was sewn, and an amoxicillin anti-inflammatory drug was sprinkled on the suture. After the operation, the rats were put back into a dry and clean cage for resting, waiting for awakening. The rats were awakened after about 1-2 hours, and then fed normally. On the 7th day after modeling, modeling group animals randomly fell into a model group, a Nintedanib positive drug group, recombinant fused polypeptide 1, 2, 3 and 4 dosage groups, and a normal control group, and the groups were administered separately for an administration cycle of 15 days. Living situations of rats were observed every day and their weights were weighed. After administration for 15 days, the eyeballs were removed and blood was taken, the rats were dissected, and lungs were taken. The content of TGF-β1 in serum and the content of HYP in lung tissues were detected.
# [2] = system: SD rats with CCl4-induced hepatic fibrosis; assay: CCl4-induced hepatic fibrosis animal model; assay type: in vivo; details: 40% CCl4 i.p. twice a week for 8 weeks, fused polypeptides 6 mg/kg s.c. once every five days
# Description: Modeling was performed on the rats. Each group other than the blank group was injected with 40% CCl4 intraperitoneally twice a week, the first injection was performed at 3 mL/kg, and then injection was performed at 2 mL/kg. Modeling was performed for 8 weeks to induce hepatic fibrosis. After the intraperitoneal injection of CCl4 for the fourth time, the drugs were administered according to Table 3. After induction for 8 weeks, the administration was stopped. The SD rats were dissected the next day, and blood was taken. The liver tissue was stored in a refrigerator at −80° C. for further use. The expression of HYP in the hepatic tissue of rats was detected. [table]
# [3] = system: SD rats with renal fibrosis; assay: Renal fibrosis animal model (ureter ligation); assay type: in vivo; details: 6 mg/kg s.c. once every five days, after 15 days
# Description: A renal fibrosis animal model was established. SD rats were anesthetized with 4% chloral hydrate, injected with 1 mL/100 g intraperitoneally, fixed to an operation board, and sterilized in an operation area for further use. […] Muscular layers and abdominal walls were sewed layer by layer, the suture was disinfected with alcohol. After SD rats woke up, the rats were put into a cage for feeding. In the blank group, ureter was not ligated, and other steps were the same.
# Then, the animals fell into a blank group, a model group, and recombinant fused polypeptide administration groups, and the administration was started on the second day after the operation, and was performed for 15 days. After administration for 15 days, blood was taken and supernatant was taken to detect the content of TGF-β1 in serum.
# [4] = system: mice with myocardial fibrosis; assay: Isoprenaline-induced myocardial fibrosis animal model; assay type: in vivo; details: BALB/c mice, isoprenaline 5 mg/kg s.c. daily for 7 days, 12 mg/kg s.c. (Table 5), after the 8th day, FIG. 5
# Description: In the model group, the experimental mice were injected with isoprenaline (ISO) (5 mg/kg) subcutaneously on the back of the mice every day for 7 consecutive days, and the mice were injected with normal saline subcutaneously (200 μL/mouse) every day. In the blank group, normal saline was injected subcutaneously (200 μL/mouse) every day. […] After the 8th day, blood was taken and was centrifuged, the supernatant was taken, and the content of TGF-β1 in serum was detected.
# [5] = system: mice with bleomycin-induced skin fibrosis; assay: Bleomycin-induced skin fibrosis model; assay type: in vivo, C57/BL black mice; details: C57/BL mice, bleomycin 10 μg/mL s.c. daily for 28 days, 10 mg/kg s.c. once every five days, 6 times, FIG. 6
# Description: Bleomycin (10 μg/mL) was injected subcutaneously every day for 28 days to form skin fibrosis. During the modeling period, the administration groups were given drugs for treatment. After modeling, the mice were killed on the next day, and the skin tissue of the mouse back was taken to detect the content of HYP in the skin tissue. [table]
# Streptococcus pneumoniae = assay: Mouse pneumonia model, bacterial pneumonia; assay type: in vivo; details: BALB/C mouse pneumonia model, nasal drip; average ± standard deviation
# Excerpt: (§1) A mouse pneumonia model was successfully established by using a nasal drip method. BALB/C mice with a body weight of 18-24 g were selected, and then anesthetized with ether on day 0, day 1 and day 2, respectively, prepared Streptococcus pneumoniae bacteria solution, adenovirus concentrated solution, Mycoplasma pneumoniae, Chlamydia pneumoniae, protozoa and pneumonia fungi were slowly dropped into the nasal cavity of the mice, so that the bacteria solutions entered the trachea and bronchi, and the bacteria solutions were prevented from flowing into the esophagus during the operation to avoid inactivation of the bacteria solutions, so that the mouse pneumonia model was established. After the model was successfully established, the recombinant fused polypeptides according to the present invention were administered.
# adenovirus = assay: Mouse pneumonia model, viral pneumonia; assay type: in vivo; details: BALB/C mouse pneumonia model, nasal drip; average ± standard deviation
# Excerpt: as §1
# Mycoplasma pneumoniae = assay: Mouse pneumonia model, mycoplasma pneumonia; assay type: in vivo; details: BALB/C mouse pneumonia model, nasal drip; average ± standard deviation
# Excerpt: as §1
# Chlamydia pneumoniae = assay: Mouse pneumonia model, chlamydia pneumonia; assay type: in vivo; details: BALB/C mouse pneumonia model, nasal drip; average ± standard deviation
# Excerpt: as §1
# protozoa = assay: Mouse pneumonia model, protozoal pneumonia; assay type: in vivo; details: BALB/C mouse pneumonia model, nasal drip; average ± standard deviation
# Excerpt: as §1
# pneumonia fungi = assay: Mouse pneumonia model, fungal pneumonia; assay type: in vivo; details: BALB/C mouse pneumonia model, nasal drip; average ± standard deviation
# Excerpt: as §1
# pulmonary infections = assay: Mouse pneumonia model, pneumonia caused by pulmonary infections; assay type: in vivo, BALB/C mice; details: BALB/C mouse pneumonia model, nasal drip, average ± standard deviation
# Excerpt: as §1
# [6] = listed as recombinant fused polypeptide II
molecule,measurement,setting,value
B1,Survival rate (%),[1],85.7%
same,Survival rate (%),[1]; listed as fused polypeptide 2,equivalent to that of the positive drug group
same,hydroxyproline (HYP) content in lung tissue,"[1]; bleomycin pulmonary fibrosis, 10 mg/kg s.c. once every five days, after 15 days, FIG. 1",can lower the hydroxyproline content
same,"content of TGF-β1 in serum, difference from the model group","[1]; bleomycin pulmonary fibrosis, after 15 days, FIG. 2, listed as fused polypeptide 2",highly significant different from the model group (***P<0.001)
same,"content of TGF-β1 in serum, difference from the model group","[1]; bleomycin pulmonary fibrosis, after 15 days, FIG. 2, listed as recombinant fused polypeptide II",can lower the TGF-β1 content
same,"content of HYP in liver tissue, difference from the model group","[2]; FIG. 3, listed as Recombinant fused polypeptide 2",highly significantly different from the model group (***P<0.001)
same,"content of HYP in liver tissue, difference from the model group","[2]; FIG. 3, listed as recombinant fused polypeptide II",can lower the HYP content
same,"content of TGF-β1 in serum, difference from the model group","[3]; FIG. 4, listed as recombinant fused polypeptide 2, 6 mg/kg",highly significantly different from the model group (***P<0.001)
same,"content of TGF-β1 in serum, difference from the model group","[3]; FIG. 4, listed as recombinant fused polypeptide II, 6 mg/kg",can lower the TGF-β1 content
same,"content of TGF-β1 in serum, difference from the model group",[4]; listed as recombinant fused polypeptide 2,highly significantly different from the model group (***P<0.001)
same,"content of TGF-β1 in serum, difference from the model group",[4]; [6],can lower the TGF-β1 content
same,"content of HYP in skin tissue, difference from the model group","[5]; listed as recombinant fused polypeptide 2, 10 mg/kg",highly significantly different from the model group (***P<0.001)
same,"content of HYP in skin tissue, difference from the model group","[5]; listed as recombinant fused polypeptide II, 10 mg/kg",can lower the hydroxyproline content
same,"Inhibitory effect, Bacterial pneumonia",Streptococcus pneumoniae,49.18 ± 5.32
same,"Inhibitory effect, Viral pneumonia",adenovirus,58.08 ± 5.27
same,"Inhibitory effect, Mycoplasma pneumonia",Mycoplasma pneumoniae,45.72 ± 5.69
same,"Inhibitory effect, Chlamydia pneumonia",Chlamydia pneumoniae,50.21 ± 4.85
same,"Inhibitory effect, Protozoal pneumonia",protozoa,66.13 ± 5.36
same,"Inhibitory effect, Fungal pneumonia",pneumonia fungi,63.07 ± 3.02
same,"Inhibitory effect, Pneumonia caused by pulmonary infections",pulmonary infections,65.87 ± 3.19
same,"Inhibitory effect, Pneumonia caused by pulmonary infections",pulmonary infections; [6],inhibitory effect
